The text below walks through data of US20090202520A1.

The experiment deals with soluble recombinant FcγRIIIB (sFcγRIIIB) (UniProt O75015). In words: SPR, comparison of SAP and CRP affinities. On the technique in general: SPR reads the build-up and loss of mass on a sensor chip optically.
soluble recombinant FcγRIIIB (sFcγRIIIB), sequence (O75015 17-200): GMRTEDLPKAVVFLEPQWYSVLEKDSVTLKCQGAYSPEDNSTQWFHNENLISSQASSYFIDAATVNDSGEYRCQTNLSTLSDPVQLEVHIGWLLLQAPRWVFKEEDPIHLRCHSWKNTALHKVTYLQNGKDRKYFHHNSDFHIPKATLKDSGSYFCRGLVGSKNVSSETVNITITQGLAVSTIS

For “serum amyloid P (SAP) (from UniProt P02743 20-223) (ligand; other documents disagree on this pair)”, the fold affinity of SAP over CRP for the same receptor turned out to be 1000 fold.
